The values below come from article doi:10.1101/459164.

The target of experiment [1] is MT145K SOSIP.664 trimer (chimpanzee SIVcpzPtt MT145 Env, Q171K) (SIVcpzPtt (chimpanzee SIV), isolate MT145). As to the kind of experiment: cryo-EM structure.
Experiment [2] deals with MT145 SOSIP.664 trimer (chimpanzee SIVcpzPtt MT145 Env, wild-type V2) (SIVcpzPtt (chimpanzee SIV), isolate MT145).

In experiment [1], “MT145K SOSIP.664 trimer (chimpanzee SIVcpzPtt MT145 Env, Q171K) (complex)” gave a stoichiometry N of 3.

In experiment [2], “MT145 SOSIP.664 trimer (chimpanzee SIVcpzPtt MT145 Env, wild-type V2) (complex)” had a stoichiometry N of 3.

As usually defined, the stoichiometry N is a count of units in the complex or per binding partner.
